From patent US20210333284A1, “METHODS AND MATERIALS FOR LARGE-SCALE ASSESSMENT OF LIGAND BINDING SELECTIVITY OF G-QUADRUPLEX RECOGNITION USING CUSTOM G4 MICROARRAYS” (Purdue Research Foundation, priority 2020, published 2021)

Tests used:
MYC Pu22 G4 variants = test: G4 microarray direct binding to loop length, loop sequence and tail variants; design: species or system human
Excerpt: Three Agilent DNA microarrays (TABLE 1) were designed, each with four identical sectors that contain ca.177,440 ssDNA 60-mers to examine G4-binding specificity. Arrays were designed with 9-73 replicates of each unique sequence to ensure statistical significance (TABLE 1). Each microarray contains different sets of G4 variants designed to examine several sequence parameters that affect G4 formation and binding specificity such as loop length (Design 1), loop sequence (Design 2), tail sequence (Design 2), and single nucleotide variants of six known G4s (Design 3). […]
The effect of specific sequence parameters on molecule binding was examined. […] Distinct patterns within the best-bound sequences were identified, including flexibility for the nucleotides in the central loop of the G4 and an overall preference for thymines in loops (FIG. 3F), consistent with previous findings that T nucleotides in loops have a greater propensity for folding into G4s than other nucleotides.^39 Different tail sequence ([…] (SEQ ID NO: 3)) preferences were found for all measured molecules (FIG. 3G), further underscoring the utility of the platform in identifying sequence features important for G4 binding and highlighting tail sequences in determining binding specificity. […]

[1] = system: G4 sequences and non-G4 ssDNA controls on Design 3 microarray; test: Custom G4 DNA microarray, direct binding by fluorescence intensity; design: species or system human
Excerpt: Three Agilent DNA microarrays (TABLE 1) were designed, each with four identical sectors that contain ca.177,440 ssDNA 60-mers to examine G4-binding specificity. Arrays were designed with 9-73 replicates of each unique sequence to ensure statistical significance (TABLE 1). Each microarray contains different sets of G4 variants designed to examine several sequence parameters that affect G4 formation and binding specificity such as loop length (Design 1), loop sequence (Design 2), tail sequence (Design 2), and single nucleotide variants of six known G4s (Design 3). All microarrays include a set of 19 sequences from human telomeres and oncogene promoters known to form G4s with various topologies as positive controls (TABLE 2). Designs 2 and 3 have a set of 295 additional G4-forming sequences from the literature.^30 For the loop length variants, the length of the tails and loops of four different MYC G4 sequences (MYC Pu27, MYC Pu18ntd, MYC Pu22, and MYC Pu22 NMR mutant) was increased up to five times their length. Loop and tail sequences were varied using A, T, G, and C polynucleotide stretches and a subset of combinations. For the loop sequence variants, 4,096 sequences of the form NGGGNGGGNNGGGNGGGN (SEQ ID NO: 2) and 64 variants of the form GGGNGGGNGGGNGGG (SEQ ID NO: 1) were generated. For the tail variants, 256 versions of the major MYC G4 with all possible dinucleotide tails ([…] (SEQ ID NO: 3)) were generated. […]
The binding specificities of several molecules were evaluated. […] Binding of each molecule is measured by detection of fluorescence intensity at each of the microarray features. […] Cellular proteins were expressed as chimeric proteins containing GST, and binding for these proteins was detected using an anti-GST antibody conjugated with Cy5 (Materials and Methods). […] For Cy5-PDS, robust binding is observed at 1 μM, with fluorescence intensities ranging over 100-fold between strongest and weakest bound DNA features. The fluorescence-binding intensities of Cy5-PDS are proportional to the concentration of pyridostatin used). […]

B1: FANCJ: GST-tagged human BRCA1-binding helicase-like protein / Fanconi anemia group J protein (protein, listed as Homo sapiens)
chain: MSSMWSEYTIGGVKIYFPYKAYPSQLAMMNSILRGLNSKQHCLLESPTGSGKSLALLCSALAWQQSLSGKPADEGVSEKAEVQLSCCCACHSKDFTNNDMNQGTSRHFNYPSTPPSERNGTSSTCQDSPEKTTLAAKLSAKKQASIYRDENDDFQVEKKRIRPLETTQQIRKRHCFGTEVHNLDAKVDSGKTVKLNSPLEKINSFSPQKPPGHCSRCCCSTKQGNSQESSNTIKKDHTGKSKIPKIYFGTRTHKQIAQITRELRRTAYSGVPMTILSSRDHTCVHPEVVGNFNRNEKCMELLDGKNGKSCYFYHGVHKISDQHTLQTFQGMCKAWDIEELVSLGKKLKACPYYTARELIQDADIIFCPYNYLLDAQIRESMDLNLKEQVVILDEAHNIEDCARESASYSVTEVQLRFARDELDSMVNNNIRKKDHEPLRAVCCSLINWLEANAEYLVERDYESACKIWSGNEMLLTLHKMGITTATFPILQGHFSAVLQKEEKISPIYGKEEAREVPVISASTQIMLKGLFMVLDYLFRQNSRFADDYKIAIQQTYSWTNQIDISDKNGLLVLPKNKKRSRQKTAVHVLNFWCLNPAVAFSDINGKVQTIVLTSGTLSPMKSFSSELGVTFTIQLEANHIIKNSQVWVGTIGSGPKGRNLCATFQNTETFEFQDEVGALLLSVCQTVSQGILCFLPSYKLLEKLKERWLSTGLWHNLELVKTVIVEPQGGEKTNFDELLQVYYDAIKYKGEKDGALLVAVCRGKVSEGLDFSDDNARAVITIGIPFPNVKDLQVELKRQYNDHHSKLRGLLPGRQWYEIQAYRALNQALGRCIRHRNDWGALILVDDRFRNNPSRYISGLSKWVRQQIQHHSTFESALESLAEFSKKHQKVLNVSIKDRTNIQDNESTLEVTSLKYSTPPYLLEAASHLSPENFVEDEAKICVQELQCPKIITKNSPLPSSIISRKEKNDPVFLEEAGKAEKIVISRSTSPTFNKQTKRVSWSSFNSLGQYFTGKIPKATPELGSSENSASSPPRFKTEKMESKTVLPFTDKCESSNLTVNTSFGSCPQSETIISSLKIDATLTRKNHSEHPLCSEEALDPDIELSLVSEEDKQSTSNRDFETEAEDESIYFTPELYDPEDTDEEKNDLAETDRGNRLANNSDCILAKDLFEIRTIKEVDSAREVKAEDCIDTKLNGILHIEESKIDDIDGNVKTTWINELELGKTHEIEIKNFKPSPSKNKGMFPGFK
modifications: GST tag
B1 was tested, and the “correlation (R) of loop length of the MYC Pu22 G4 vs binding intensity” value (MYC Pu22 G4 variants; loop length variants) was “strongest effect” and the “binding specificity, G4 vs non-G4 ssDNA sequences” value [1] was “also bind other ssDNAs in addition to folded G4s”.

B2: DHX36: GST-tagged human DHX36/G4R1/MLEL1 helicase (protein, listed as Homo sapiens)
chain: MSYDYHQNWGRDGGPRSSGGGYGGGPAGGHGGNRGSGGGGGGGGGGRGGRGRHPGHLKGREIGMWYAKKQGQKNKEAERQERAVVHMDERREEQIVQLLNSVQAKNDKESEAQISWFAPEDHGYGTEVSTKNTPCSENKLDIQEKKLINQEKKMFRIRNRSYIDRDSEYLLQENEPDGTLDQKLLEDLQKKKNDLRYIEMQHFREKLPSYGMQKELVNLIDNHQVTVISGETGCGKTTQVTQFILDNYIERGKGSACRIVCTQPRRISAISVAERVAAERAESCGSGNSTGYQIRLQSRLPRKQGSILYCTTGIILQWLQSDPYLSSVSHIVLDEIHERNLQSDVLMTVVKDLLNFRSDLKVILMSATLNAEKFSEYFGNCPMIHIPGFTFPVVEYLLEDVIEKIRYVPEQKEHRSQFKRGFMQGHVNRQEKEEKEAIYKERWPDYVRELRRRYSASTVDVIEMMEDDKVDLNLIVALIRYIVLEEEDGAILVFLPGWDNISTLHDLLMSQVMFKSDKFLIIPLHSLMPTVNQTQVFKRTPPGVRKIVIATNIAETSITIDDVVYVIDGGKIKETHFDTQNNISTMSAEWVSKANAKQRKGRAGRVQPGHCYHLYNGLRASLLDDYQLPEILRTPLEELCLQIKILRLGGIAYFLSRLMDPPSNEAVLLSIRHLMELNALDKQEELTPLGVHLARLPVEPHIGKMILFGALFCCLDPVLTIAASLSFKDPFVIPLGKEKIADARRKELAKDTRSDHLTVVNAFEGWEEARRRGFRYEKDYCWEYFLSSNTLQMLHNMKGQFAEHLLGAGFVSSRNPKDPESNINSDNEKIIKAVICAGLYPKVAKIRLNLGKKRKMVKVYTKTDGLVAVHPKSVNVEQTDFHYNWLIYHLKMRTSSIYLYDCTEVSPYCLLFFGGDISIQKDNDQETIAVDEWIVFQSPARIAHLVKELRKELDILLQEKIESPHPVDWNDTKSRDCAVLSAIIDLIKTQEKATPRNFPPRFQDGYYS
modifications: GST tag
notes: GST-tagged human DHX36/G4R1/MLEL1 helicase
With B2 the “tail (flanking) sequence preference in direct binding” value (MYC Pu22 G4 variants; NNGGGTGGGGAGGGTGGGNN variants, no competitor) was “preferentially binds MYC22 G4 variants containing pyrimidines (C/T) at the 5′ end of the G4” and the “binding specificity, G4 vs non-G4 ssDNA sequences” value [1] was “bind only G4 sequences”.
